75 variants from publication doi:10.1101/2021.08.20.457142 can be followed below.

To fix the notation:
B1: MKK7 D-site peptide (second D-site) / JNK1 alpha1 (MAPK8 isoform 1) L198A, full length (parent complex)
chain 1: SQPQRPRPTLQLPLANEAFEQP
chain 2: MSRSKRDNNFYSVEIGDSTFTVLKRYQNLKPIGSGAQGIVCAAYDAILERNVAIKKLSRPFQNQTHAKRAYRELVLMKCVNHKNIIGLLNVFTPQKSLEEFQDVYIVMELMDANLCQVIQMELDHERMSYLLYQMLCGIKHLHSAGIIHRDLKPSNIVVKSDCTLKILDFGLARTAGTSFMMTPYVVTRYYRAPEVIAGMGYKENVDLWSVGCIMGEMVCHKILFPGRDYIDQWNKVIEQLGTPCPEFMKKLQPTVRTYVENRPKYAGYSFEKLFPDVLFPADSEHNKLKASQARDLLSKMLVIDASKRISVDEALQHPYINVWYDPSEAEAPPPKIPDKQLDEREHTIEEWKELIYKEVMDLEERTKNGVIRGQPSPLAQVQQ

In this experiment the parent is B1.
As to chain 1 P8A, chain 1 P13A, the screen value was 0.299 Z-score of the enrichment rate within one screen of 711 sequences.

In the case of chain 1 R7A, chain 1 P8A, the screen value was -0.277 Z-score of the enrichment rate within one screen of 711 sequences.

Take chain 1 L12E: the screen value was -0.637 Z-score of the enrichment rate within one screen of 711 sequences.

For chain 1 L12A, the screen value was -0.706 Z-score of the enrichment rate within one screen of 711 sequences.

Take chain 1 L12V: the screen value is -0.205 Z-score of the enrichment rate within one screen of 711 sequences.

With chain 1 L12C, the screen value was -0.457 Z-score of the enrichment rate within one screen of 711 sequences.

Consider chain 1 L12P, for which the screen value is -0.637 Z-score of the enrichment rate within one screen of 711 sequences.

Turning to chain 1 L12N, the screen value is -0.321 Z-score of the enrichment rate within one screen of 711 sequences.

Take chain 1 L12I: the screen value was 0.938 Z-score of the enrichment rate within one screen of 711 sequences.

For chain 1 Q11A, chain 1 P13A, the screen value is 1.38 Z-score of the enrichment rate within one screen of 711 sequences.

Turning to chain 1 R5A, chain 1 L12A, the screen value is -0.522 Z-score of the enrichment rate within one screen of 711 sequences.

As to chain 1 P8A, chain 1 L10A, the screen value is -0.67 Z-score of the enrichment rate within one screen of 711 sequences.

Regarding chain 1 R5A, chain 1 L14A, the screen value is -0.406 Z-score of the enrichment rate within one screen of 711 sequences.

Regarding chain 1 Q4Y, the screen value is 1.67 Z-score of the enrichment rate within one screen of 711 sequences.

chain 1 Q4F: the screen value is 1.4 Z-score of the enrichment rate within one screen of 711 sequences.

For the variant chain 1 Q4L, the screen value was 1.47 Z-score of the enrichment rate within one screen of 711 sequences.

As for chain 1 Q4I, the screen value was 1.36 Z-score of the enrichment rate within one screen of 711 sequences.

With chain 1 Q4P, the screen value was 1.26 Z-score of the enrichment rate within one screen of 711 sequences.

Take chain 1 Q4A, chain 1 L10A: the screen value is -0.57 Z-score of the enrichment rate within one screen of 711 sequences.

Turning to chain 1 R7A, chain 1 L12A, the screen value is -0.492 Z-score of the enrichment rate within one screen of 711 sequences.

Turning to chain 1 P3A, chain 1 R5A, the screen value was 0.535 Z-score of the enrichment rate within one screen of 711 sequences.

For the variant chain 1 P3A, chain 1 N16A, the screen value was 1.34 Z-score of the enrichment rate within one screen of 711 sequences.

In the case of chain 1 P13S, the screen value is 1.22 Z-score of the enrichment rate within one screen of 711 sequences.

With chain 1 P13L, the screen value was 1.38 Z-score of the enrichment rate within one screen of 711 sequences.

On to chain 1 P13V, for which the screen value was 1.22 Z-score of the enrichment rate within one screen of 711 sequences.

Consider chain 1 P13N, for which the screen value is 1.87 Z-score of the enrichment rate within one screen of 711 sequences.

For the variant chain 1 P13H, the screen value is 1.44 Z-score of the enrichment rate within one screen of 711 sequences.

For the variant chain 1 P13Q, the screen value was 1.52 Z-score of the enrichment rate within one screen of 711 sequences.

As to chain 1 P13D, the screen value was 1.95 Z-score of the enrichment rate within one screen of 711 sequences.

As for chain 1 P13C, the screen value is 1.25 Z-score of the enrichment rate within one screen of 711 sequences.

Regarding chain 1 Q4A, chain 1 P8A, the screen value was 0.697 Z-score of the enrichment rate within one screen of 711 sequences.

Regarding chain 1 Q4A, chain 1 R5A, the screen value is 0.359 Z-score of the enrichment rate within one screen of 711 sequences.

As for chain 1 R5A, chain 1 P8A, the screen value was 0.293 Z-score of the enrichment rate within one screen of 711 sequences.

Consider chain 1 R5A, for which the screen value was 0.263 Z-score of the enrichment rate within one screen of 711 sequences.

With chain 1 R5W, the screen value was 0.845 Z-score of the enrichment rate within one screen of 711 sequences.

As to chain 1 R5E, the screen value is 0.07 Z-score of the enrichment rate within one screen of 711 sequences.

For chain 1 R5I, the screen value is 0.772 Z-score of the enrichment rate within one screen of 711 sequences.

Regarding chain 1 R5P, the screen value was 0.594 Z-score of the enrichment rate within one screen of 711 sequences.

As for chain 1 R5D, the screen value was -0.21 Z-score of the enrichment rate within one screen of 711 sequences.

chain 1 R5V: the screen value is 0.568 Z-score of the enrichment rate within one screen of 711 sequences.

Turning to chain 1 L14R, the screen value is 0.833 Z-score of the enrichment rate within one screen of 711 sequences.

With chain 1 L14A, the screen value was 0.48 Z-score of the enrichment rate within one screen of 711 sequences.

As to chain 1 L14D, the screen value was 0.409 Z-score of the enrichment rate within one screen of 711 sequences.

With chain 1 L14T, the screen value was 0.9 Z-score of the enrichment rate within one screen of 711 sequences.

As to chain 1 L14K, the screen value is 0.866 Z-score of the enrichment rate within one screen of 711 sequences.

chain 1 L14F: the screen value is 1.33 Z-score of the enrichment rate within one screen of 711 sequences.

chain 1 L14I: the screen value is 1.9 Z-score of the enrichment rate within one screen of 711 sequences.

On to chain 1 P3A, chain 1 P8A, for which the screen value is 0.357 Z-score of the enrichment rate within one screen of 711 sequences.

Turning to chain 1 R7A, chain 1 L14A, the screen value is -0.345 Z-score of the enrichment rate within one screen of 711 sequences.

In the case of chain 1 P3M, the screen value was 1.81 Z-score of the enrichment rate within one screen of 711 sequences.

On to chain 1 P3V, for which the screen value was 1.59 Z-score of the enrichment rate within one screen of 711 sequences.

As for chain 1 P3F, the screen value was 1.46 Z-score of the enrichment rate within one screen of 711 sequences.

With chain 1 P3I, the screen value was 1.41 Z-score of the enrichment rate within one screen of 711 sequences.

Regarding chain 1 P3D, the screen value is 1.22 Z-score of the enrichment rate within one screen of 711 sequences.

With chain 1 P3N, the screen value is 1.46 Z-score of the enrichment rate within one screen of 711 sequences.

Take chain 1 P8A, chain 1 L14A: the screen value is -0.643 Z-score of the enrichment rate within one screen of 711 sequences.

chain 1 Q4A, chain 1 P13A: the screen value was 1.2 Z-score of the enrichment rate within one screen of 711 sequences.

Consider chain 1 P6A, chain 1 L12A, for which the screen value was -0.68 Z-score of the enrichment rate within one screen of 711 sequences.

In the case of chain 1 P6Q, the screen value was 1.26 Z-score of the enrichment rate within one screen of 711 sequences.

In the case of chain 1 P6C, the screen value was 0.713 Z-score of the enrichment rate within one screen of 711 sequences.

Take chain 1 P6V: the screen value was 0.968 Z-score of the enrichment rate within one screen of 711 sequences.

Consider chain 1 P6A, for which the screen value is 1.29 Z-score of the enrichment rate within one screen of 711 sequences.

On to chain 1 P6H, for which the screen value is 1.12 Z-score of the enrichment rate within one screen of 711 sequences.

chain 1 P6F: the screen value is 1.06 Z-score of the enrichment rate within one screen of 711 sequences.

For chain 1 P6L, the screen value was 1.25 Z-score of the enrichment rate within one screen of 711 sequences.

chain 1 P6T: the screen value is 1.07 Z-score of the enrichment rate within one screen of 711 sequences.

As for chain 1 Q4A, chain 1 R7A, the screen value is 0.0948 Z-score of the enrichment rate within one screen of 711 sequences.

Turning to chain 1 R5A, chain 1 L10A, the screen value is -0.687 Z-score of the enrichment rate within one screen of 711 sequences.

Regarding chain 1 L12A, chain 1 P13A, the screen value was -0.381 Z-score of the enrichment rate within one screen of 711 sequences.

Consider chain 1 R5A, chain 1 R7A, for which the screen value is -0.162 Z-score of the enrichment rate within one screen of 711 sequences.

As to chain 1 L10A, chain 1 L14A, the screen value is -0.882 Z-score of the enrichment rate within one screen of 711 sequences.

As for chain 1 R5A, chain 1 Q11A, the screen value was 0.344 Z-score of the enrichment rate within one screen of 711 sequences.

chain 1 T9A, chain 1 L12A: the screen value is -0.742 Z-score of the enrichment rate within one screen of 711 sequences.

On to chain 1 P8A, chain 1 Q11A, for which the screen value was 0.343 Z-score of the enrichment rate within one screen of 711 sequences.

Consider chain 1 R5A, chain 1 P6A, for which the screen value is 0.351 Z-score of the enrichment rate within one screen of 711 sequences.
